Source: patent US20050113284A1, “Drug for regenerating tissue and vessel and method therefor” (priority 2001, published 2005)

Target: T1, MERMUC bait protein (Homo sapiens, UniProt Q8N307)
T1 construct: Bait-2 corresponds to a 123 amino acid portion of the C-terminus (bait-2); expressed in transfected cells; host or cells: yeast AH109 strain (pGBKT7 bait vector)
T1 sequence (Q8N307 587-709): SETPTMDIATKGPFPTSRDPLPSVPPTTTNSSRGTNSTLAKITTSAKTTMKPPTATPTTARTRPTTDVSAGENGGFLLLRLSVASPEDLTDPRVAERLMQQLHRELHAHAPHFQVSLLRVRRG
Experiment: Yeast two-hybrid binding of c-Met prey deletion proteins to MERMUC bait-2
Settings: yeast growth on SD/-Leu,-Trp,-His and SD/-Leu,-Trp,-Ade; human MERMUC bait-2
Experimental: The present invention was performed using the reported yeast two-hybrid system (Proc. Natl. Acad. Sci. USA., 1991, Vol. 88, p.9578-9582) based on conventional method and the experimental protocols appended to the reagents.
PCR was performed using DNA (clone No. 3-309) corresponding to the 91 amino acids (amino acids 993-1083 of SEQ ID NO: 4) of the C-terminal region of the human HGF receptor c-Met β chain that was identified in the previous Example to have the binding ability to the cytoplasmic region of human MERMUC as a template. […]
The binding activity between the c-Met prey proteins derived from the 7 DNA fragments and the MERMUC bait protein was analyzed by the yeast two-hybrid system described in Example 1. Specifically, the binding activity was evaluated based on the growth of yeast transformed with the vector on 2 kinds of yeast minimum media, i.e., (1) SD/-Leu, -Trp, -His media and (2) SD/-Leu, -Trp, -Ade media.

prey DNA G: c-Met prey protein, amino acids 993-1043 of SEQ ID NO: 4 (RRLLQPEYCPDPLYEVMLKCWHPKAEMRPSFSELVSRISAIFSTFIGEHYV; listed as Homo sapiens)
binding activity with MERMUC bait protein: − (no binding).
